Measurements from patent publication US20140370037A1 (published 2014).

T1: human DLL3 antigen (human, UniProt Q9NYJ7 27-492, limits assumed)
T1 construct: also called immobilized human DLL3; recombinant human DLL3
T1 sequence (looked up): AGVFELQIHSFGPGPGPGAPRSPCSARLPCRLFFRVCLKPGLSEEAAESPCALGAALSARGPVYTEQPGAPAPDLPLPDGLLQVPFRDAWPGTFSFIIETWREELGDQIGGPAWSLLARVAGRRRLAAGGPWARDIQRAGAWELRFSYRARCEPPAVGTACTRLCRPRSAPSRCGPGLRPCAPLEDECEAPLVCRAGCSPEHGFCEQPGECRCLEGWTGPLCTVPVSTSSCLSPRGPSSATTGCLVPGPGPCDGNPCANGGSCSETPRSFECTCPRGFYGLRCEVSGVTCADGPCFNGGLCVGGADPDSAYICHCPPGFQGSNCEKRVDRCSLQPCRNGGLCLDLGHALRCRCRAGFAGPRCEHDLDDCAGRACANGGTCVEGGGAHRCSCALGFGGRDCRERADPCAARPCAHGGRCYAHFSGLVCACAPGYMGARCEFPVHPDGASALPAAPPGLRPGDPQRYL


What was measured:
human DLL3 antigen [1] = target: T1, human DLL3 antigen; experiment: SPR, Biacore 2000, human DLL3 antigen
Procedure: Various methods were used to analyze the binding and immunochemical characteristics of selected DLL3 modulators generated as set forth above. […] Affinities and kinetic constants kₒₙ and koff of the selected modulators were measured using bio-layer interferometry analysis on a ForteBio RED (ForteBio, Inc.) or surface plasmon resonance using a Biacore 2000 each according to the manufacturer's instructions.
In this respect the humanized constructs (CDR grafted) were compared with “traditional” chimeric antibodies comprising the murine parent (or donor) heavy and light chain variable domains and a human constant region substantially equivalent to that used in the humanized constructs. With these constructs surface plasmon resonance (SPR) was conducted using a Biacore 2000 (GE Healthcare) to identify any subtle changes in rate constants brought about by the humanization process.

human DLL3 antigen [2] = target: T1, human DLL3 antigen; experiment: ELISA or flow cytometry screen

| binding result (human DLL3 antigen [1]) | binding result (human DLL3 antigen [2]) | Binder |
| --- | --- | --- |
| binds |  | hSC16.15 (antibody, V domains shown, humanized (CDR grafted); also called humanized SC16.15) VH: QVQLVQSGAEVKKPGASVKVSCKASGYTFTRYWIHWIRQAPGQGLEWMGYINPTTVYTEFNQNFKDRVTMTRDTSTSTVYMELSSLRSEDTAVYYCARGGSNFFDYWGQGTTVTVSS VL: AIQLTQSPSSLSASVGDRVTITCRASENIYYNLAWYQQKPGKAPKLLIYTANSLEDGVPSRFSGSGSGTDFTLTISSLQPEDFATYFCKQAYDVPPTFGGGTKLEIK |
|  | binds | SC16.137 (antibody, V domains shown, murine mAb) VH: EVQLVESGGDLVKPGGSLKLSCAASGFTFSSYGMSWVRQTPDKRLEWVATISSGGSYTYYPDSVKGRFTISRDNAKNTLYLQMSSLKSEDTAMYYCARRRADAMDYWGQGTSVTVSS VL: QIVLTQSPAIMSASLGEEITLTCSASSSVSYMHWYQQKSGTSPKLLIYSTSNLASGVPSRFSGSGSGTFYSLTISSVEAEDAADYYCHQWSSYHTFGGGTKLEIKR |
| binds |  | hSC16.13 (antibody, V domains shown, humanized (CDR grafted)) VH: QITLKESGPTLVKPTQTLTLTCTFSGFSLSTSGMGVGWIRQPPGKALEWLAHIWWDDVKRYSPSLKSRLTITKDTSKNQVVLTMTNMDPVDTATYYCARIVSFDNDVVSAMDYWGQGTLVTVSS VL: DIQMTQSPSSLSASVGDRVTITCSASSSVSYMYWYQQKPGKAPKLLIYLTSNLASGVPSRFSGSGSGTDFTLTISSLQPEDFATYYCQQWRSNPFTFGQGTKLEIKR |
|  | binds | SC16.135 (antibody, V domains shown, murine mAb) VH: QVQLQQSGAELVRPGTSVKVSCKASGYAFTNYLIEWVKQRPGQGLEWIGVINPGSGGTNSNEKFKAKATLTADKSSSTAYMQLSSLTSADSAVYFCARSDYDYAFYAMDYWGQGTSVTVSS VL: DIKMTQSPSSMYASLGERVTITCKASQDINRYLSWFQQKPGKSPKTLIYRANRLVDGVPSRFSGSGSGQDYSLTISSLEYEDMGIYYCLQYDEFPFTFGSGTKLEIK |
|  | binds | SC16.141 (antibody, V domains shown, murine mAb) VH: QVQLKQSGPGLVAPSQSLFITCTVSGFSLTSYEINWVRQPPGKGLEWLGVIWTGGSTNYNSALISRLSISKDNSKSLVFLKMNSLQTDDTAIYYCVRGVYAMDYWGQGTSVTVSS VL: DIKMTQSPSSMYASLGERVTITCKASQDINSYLSWFQQKPGKSPKTLIYRANRLVDGVPSRFSGSGSGQDYSLTISSLEYEDMGIYYCLQYDEFPFTFGSGTKLEIK |
|  | binds | SC16.140 (antibody, V domains shown, murine mAb) VH: QVQLQQSGPELVRPGASVKMSCKASGYTFTSYWMHWVKQRPGQGLEWIGMIDPSNSETRLNQKFKDKATLNVDKSSNTAYMQLSSLTSEDSAVYYCAVMDYYFDYWGQGTTLTVSS VL: DIVLTQSLASLAVSLGQRATISCRASKSVSTSGYSYMHWYQQKPGQPPKLLIYLASNLESGVPARFSGSGSGTDFTLNIHPVEDEDAATYYCQHSRELPFTFGGGTKLEIKR |
|  | binds | SC16.125 (antibody, V domains shown, murine mAb) VH: DVQLQESGPDLVKPSQSLSLTCTVTGYSITSGYSWHWIRQFPGNKLEWMGYIHYSGSTNYNPSLKSRISITRDTSKNQFFLQFKSVTTEDSATYYCALEGNYDGFAYWGQGTLVTVS VL: DIQMNQSPSSLSASLGDTITITCHASQNINVWLSWYQQKPGNIPKLLIYKASILHTGVPSRFSGSGSGTGFTLTISSLQPEDIATYSCQQGQSYPYTFGGGTKLEIK |
|  | binds | SC16.126 (antibody, V domains shown, murine mAb) VH: QVQMKESGPGLVAPSQSLSITCTVSGSSLTNYGVHWVRQPPGKGLEWLGVIWAGGSTNYNSALMSRLSISKDNSKSQVFLKMNSLQTDDTAMYYCARDWEGWFAYWGQGTLVTVSA VL: DIQMNQSPSSLSASLGDTITITCHASQNINVWLSWYQQKPGNIPKLLIYKASNLHTGVPSRFSGSGSGTGFTLTISSLQPEDIATYYCQQGQSYPFTFGSGTKLEIK |
|  | binds | SC16.149 (antibody, V domains shown, murine mAb) VH: QVQLKESGPGLVAPSQSLSITCAVSGFSLTSFGVHWVRQPPGKGLEWLGVIWAGGSTNYYSALMSRLSISIDNSKSQVFLKMNSLQTDDTAMYYCARDWEGWFAYWGQGTLVTVSA VL: DIQMNQSPSSLSASLGDTITITCHASQNINVWLSWYQQKPGNIPKLLIYKASHLHTGVPSRLSGSGSGTGFTLTISSLQPEDIATYYCQQGQSYPFTFGSGTTLEIK |
|  | binds | SC16.147 (antibody, V domains shown, murine mAb) VH: QIQLVQSGPELTKPGETVKISCKASGYTFTDYSLHWVKQALGKGLKWMGWINTETGEPAYADDFKGRFAFSLETSASTAYLQINDLKNEDTTTYFCGIYDGYAMDYWGQGTSVTVSS VL: DIQMTQTASSLSASLGDRVTISCRASQDINNYLNWYQQKPDGTVKLLIYYTSRLHSGVPSRFSGSGSGTDYSLTISILEQEDIATYFCQQGDTLPWTFGGGTKLEIK |
|  | binds | SC16.132 (antibody, V domains shown, murine mAb) VH: QVQLKESGPGLVAPSQSLSITCTVSGFSLTDYGVSWIRQPPGKGLEWLGVVWGGGSTYYNSALKSRLSITKDNSKSQVFLKMNSLQTDDTAMYYCAKQRGQYGAYWGQGTLVTVSA VL: DIQMTQSPASQSASLGESVTITCLASQTIGTWLAWYQQKPGKSPQLLIYAATSLADGVPSRFSGSGSGTKFSFKISSLQAEDFVSYYCQQLYSTPWTFGGGTKLEIK |
|  | binds | SC16.138 (antibody, V domains shown, murine mAb) VH: QVQLKESGPGLVAPSQSLSITCTVSGFSLTDYGVSWIRQPPGKGLEWLGVVWGGGSTYYNSALKSRLSISKDNSKSQVFLKMNSLQTDDTAMYYCAKQRGQYGAYWGQGTLVTVSA VL: DIQMTQSPASQSASLGESVTITCLASQTIGTWLAWYQQKPGKSPQLLIYSATSLADGVPSRFSGSGSGTKFSFKISSLQAEDFVSYYCQQLYSTPWTFGGGTKLEIK |
|  | binds | SC16.143 (antibody, V domains shown, murine mAb) VH: QVQLQQSGPELVKPGASVRISCKASGYTFTSYYIHWVKQRPGQGLEWIGWIYPGNGNTKYNEKFKGKATLTADKSSSTAYMQISSLTSEDSAVYFCARERWLLLWFAYWGQGTLVTVSA VL: DVLMTQTPLSLPVSLGDQASISCRSSQSIVHSNGNTYLEWYLQKPGQSPKLLIYKVSNRFSGVPDRFSGSGSGTDFTLKISRVEAEDLGVYYCFQGSHVPLTFGAGTKLELK |
|  | binds | SC16.133 (antibody, V domains shown, murine mAb) VH: QVQLKESGPGLVAPSQSLSITCTVSGFSLTNYAVHWVRQSPGKGLEWLGVIWSDGSTDYNAAFISRLSISKDNSKSQVFFKMNSLQADDTAMYYCARKKGGWFPWFAYWGQGTLVTVSA VL: SIVMTQTPKFLLVSAGDRVTITCKASQSVSNDVAWYQQKPGQSPKLLIYCASNRYTGVPDRFTGSGYGTDFTFTISTVQAEDLAVYFCQQDYSSPLTFGAGTKLELK |
|  | binds | SC16.144 (antibody, V domains shown, murine mAb) VH: QIQLVQSGPELKKPGETVKISCKASGYTFTNYGMNWVKQAPGKGLKWVGWINTYTGEPTYADDFKGRFAFSLETSASTAYLQIDNLKNEDTATYFCARVGDYVGFDYWGQGTTLTVSS VL: SIVMTQTPKFLLVSAGDRVTITCKASQSVSNDVGWYQQKPGQSPKLLIYYASNRYNGVPDRFTGSGYGTDFTFTISTVQAEDLAVYFCQQDYSSPWTFGGGTKLEIK |
|  | binds | SC16.13 (antibody, V domains shown, murine mAb) VH: QVTLKESGPGILQPSQTLSLTCSFSGFSLSTSGMGVGWIRQPSGKGLEWLAHIWWDDVKRYNPALKSRLTISKDTSSSQVFLKIASVDTADTATYYCARIVSFDNDVVSAMDYWGQGTSVTVSS VL: QIVLTQSPALVSASPGEKVTMTCSASSSVSYMYWYQQKPRSSPKPWIYLTSNLASGVPARFSGSGSGTSYSLTISSMEAEDAATYYCQQWRSNPFTFGSGTKLEIK |
|  | binds | SC16.130 (antibody, V domains shown, murine mAb) VH: EVQLQQSGPELVKPGASVKMSCKASGYTFTSYVMHWVKQKPGQGLEWIGYINPYNDGTEYNEKFKGKATLTSDKSSSTAYMELSSLTSEDSAVYYCARGVYDGYSYFDYWGQGTTLTVSS VL: DIQLTQSPASLSASVGETVTITCRASGSIHNYLAWYQQKQGKSPQLLVYNAKTLVDGVPSRFSGSGSGTQYSLKINSLQPEDFGYYYCQHFWTTPWTFGGGTKLEIK |
|  | binds | SC16.136 (antibody, V domains shown, murine mAb) VH: EFQLQQSGPELVKPGASVKMSCKASGYTFTSYVMHWVKQKPGQGLEWIGYINPYNDGTKYNEKFKGKATLTSDKSSSTAYMELSSLTSEDSAVYYCARDRSGYEDYYGMDYWGQGTSVTVSS VL: DIQMTQSPASLSASVGETVTITCRASGNIHNYLAWYQQKQGKSPHLLVYNAKTLADGVPSRFSGSGSGTQYSLKINSLQPEDFGSYYCQHFWSTPWTFGGGTKLEIK |
|  | binds | SC16.142 (antibody, V domains shown, murine mAb) VH: EVQLQQSGPELVKPGASVKISCKASGYTFTDYNMHWVKQSHGKSLEWIGFFYPYNGNTVYSQKFKSKATLTVDNSSSTAYMELRSLTSEDSAVYYCARLNWEGYWGQGTTLTVSS VL: DIKMTQSPSSMYASLGERVTITCKASQDINNYLSWFQQKPGKSPKTLIYRANRLVDGVPSRFSGSGSGQDYSLTISSLEYEDMGIYYCLQYDEFPYTFGGGTKLEIKR |
|  | binds | SC16.148 (antibody, V domains shown, murine mAb) VH: QIQLVQSGPELKKPGETVKISCKASGYTLTNYGMNWVKQAPGKGLKWMGWINTYTGEPTYADDFKGRFAFSLETSARIVYLQINNLKNEDTATYFCAKYEAHEGFVYWGQGTLVTVSA VL: QIVLTQSPAIMSASPGEKVTMTCSASSSVSYMYWYQQKPGSSPRLLIYDTSNLASGVPVRFSGSGSGTSYSLTISRMEAEDTATYYCQEWSNNPLTFGDGTKLELK |
